Reference: US20180282430A1 (Bayer, published 2018)
Numbering of substitutions follows the chain as printed. Numbers in names are those of the source. Each block holds one binder with its values, some of them ahead of it.

Experiments:
[1] = target: T1, Human TFPI (tissue factor pathway inhibitor) (human, UniProt P10646 29-304, limits assumed); assay: ELISA on plate-coated human TFPI; Fab expression media bound, then 1 h at 37 C in PBS pH 7.0; amplex red
T1 construct: Coated at 1 ug/ml on Maxisorb plates for the ELISA; For the Biacore work the human TFPI came from American Diagnostica
T1 sequence (looked up): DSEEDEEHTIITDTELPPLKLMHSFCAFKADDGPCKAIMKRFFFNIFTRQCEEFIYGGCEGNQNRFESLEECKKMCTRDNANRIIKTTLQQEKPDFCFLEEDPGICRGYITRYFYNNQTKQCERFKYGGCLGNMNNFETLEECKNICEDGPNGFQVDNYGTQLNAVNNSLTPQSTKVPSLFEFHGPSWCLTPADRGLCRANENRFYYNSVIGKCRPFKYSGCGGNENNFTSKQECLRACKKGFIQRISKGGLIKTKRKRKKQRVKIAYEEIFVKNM
Description: (§1) Human TFPI, 1 μg/ml, was used to coat Maxisorb™ microtiter plates. Expression media, 100 μl, from each member of the His scan library, was added to two wells on the plate, in a pair wise fashion. The plate was incubated on a shaker at room temperature for 1 hr. The plate was washed 3× with PBST. PBS (pH 7.0) was added to one well of the pair, 100 mM pH6.0 Citrate buffer was added to the second well of the same pair. The plate was incubated at 37° C. with shaking for one hr. The plate was washed 3× with PBST and developed using amplex red. A pH 7.0/pH 6.0 ratio was established to rank the sensitive muteins. The ratio for wild type 2A8-g200 Fab was 1.0.

[2] = target: T1, Human TFPI (tissue factor pathway …); assay: ELISA on plate-coated human TFPI; Fab expression media bound, then 1 h at 37 C in 100 mM citrate pH 6.0; amplex red
Description: as §1

[3] = target: T1, Human TFPI (tissue factor pathway …); assay: pH 6.0 TFPI dissociation ELISA; ratio of the signals at pH 7.0 and pH 6.0
Description: as §1

[4] = target: T1, Human TFPI (tissue factor pathway …); assay: SPR (Biacore T200): human TFPI amine-coupled on a CM4 or CM5 chip, Fab variant injected, dissociation followed in pH 7.4 or pH 6.0 buffer
Description: Purified 2A8-g200 variants in Fab format (referred to as wt gA200Fab in Table 1) were tested using surface plasmon resonance (Biacore). Surface plasmon resonance (Biacore T200) was used to measure the dissociation rate of the antibodies. […] Purified 2A8-g200 variants were injected, following by 40-minute dissociation either at pH7.4 or pH6.0 buffer. The antibodies were diluted in HBS-P buffer at different concentrations and the flow rate was set to 50 μl/min. After each round of antibody injection, the chip was regenerated by injecting 90 μl of pH 1.5 glycine. The data set was evaluated using BIAevaluation Software.
The dissociation constant (kd) for each 2A8-g200 variant antibody was determined by using a model with the following equation: […]
where R is the response at time t, R₀ is the response at time t_{0.}—the start of dissociation, offset allows for a residual response at the end of complete dissociation. A ratio of kd at pH 6.0 to kd at pH 7.4 was calculated for each 2A8-g200 variant. A mutation with observed ratio of […] was considered as pH-sensitive mutation and could be used for construction of IgG variants of 2A8-g200.

B1: 2A8-g200 Fab (wild type) (Fab, V domains shown)
VH: EVQLVESGGGLVQPGGSLRLSCAASGFTFSSYGMDWVRQAPGKGLEWVSSIRGSRGSTYYADSVKGRFTISRDNSKNTLYLQMNSLRAEDTAVYYCARLYRYWFDYWGQGTLVTVSS
VL: SYELTQPPSVSVSPGQTARITCSGDNLPKYYAHWYQQKPGQAPVVVIFYDVNRPSGIPERFSGSNSGNTATLTISGTQAMDEADYYCQAWWSSTPVFGGGTKLTVLG
notes: Fab format, expressed in E. coli; also called wt gA200Fab; wild type 2A8-g200 Fab
- TFPI ELISA signal, pH 7.0 [1]: 5250
- TFPI ELISA signal, pH 6.0 [2]: 5350
- Ratio pH 7.0/pH 6.0 [3]: 0.98

B2: 2A8-g200 Fab VH-Y32H (Fab, V domains shown)
VH: B1 VH with Y32H
VL: B1 VL
notes: Member of the 2A8-g200 Fab histidine scanning library
- TFPI ELISA signal, pH 7.0 [1]: 3560
- TFPI ELISA signal, pH 6.0 [2]: 2580
- Ratio pH 7.0/pH 6.0 [3]: 1.38

B3: 2A8-g200 Fab VH-Y102H (Fab, V domains shown)
VH: B1 VH with Y102H
VL: B1 VL
notes: as for B2
- TFPI ELISA signal, pH 7.0 [1]: 3310
- TFPI ELISA signal, pH 6.0 [2]: 1080
- Ratio pH 7.0/pH 6.0 [3]: 3.07

B8: 2A8-g200 Fab VL-F48H (Fab, V domains shown)
VH: B1 VH
VL: B1 VL with F48H
notes: as for B2
- TFPI ELISA signal, pH 7.0 [1]: 2070
- TFPI ELISA signal, pH 6.0 [2]: 1550
- Ratio pH 7.0/pH 6.0 [3]: 1.33

B9: 2A8-g200 Fab VH-Y100H (Fab, V domains shown)
VH: B1 VH with Y100H
VL: B1 VL
notes: as for B2
- TFPI ELISA signal, pH 7.0 [1]: 2540
- TFPI ELISA signal, pH 6.0 [2]: 1430
- Ratio pH 7.0/pH 6.0 [3]: 1.78

B11: 2A8-g200 Fab VH-S50H (Fab, V domains shown)
VH: B1 VH with S50H
VL: B1 VL
- TFPI ELISA signal, pH 7.0 [1]: 2160
- TFPI ELISA signal, pH 6.0 [2]: 1640
- Ratio pH 7.0/pH 6.0 [3]: 1.32

The next lines start with the values.

- TFPI ELISA signal, pH 7.0 [1]: 1830
- TFPI ELISA signal, pH 6.0 [2]: 1510
- Ratio pH 7.0/pH 6.0 [3]: 1.21
B4: 2A8-g200 Fab VL-W90H (Fab, V domains shown)
VH: B1 VH
VL: B1 VL with W90H
notes: as for B2

- fold (x) printed after the variant's name; the sheet does not name it, paragraph 57 speaks of the ratio of kd at pH 6.0 to kd at pH 7.4 [4]: 2.7 x
- TFPI ELISA signal, pH 7.0 [1]: 3420
- TFPI ELISA signal, pH 6.0 [2]: 2640
- Ratio pH 7.0/pH 6.0 [3]: 1.3
B5: 2A8-g200 Fab VL-L27H (Fab, V domains shown)
VH: B1 VH
VL: B1 VL with L27H
notes: as for B2

- TFPI ELISA signal, pH 7.0 [1]: 2660
- TFPI ELISA signal, pH 6.0 [2]: 2040
- Ratio pH 7.0/pH 6.0 [3]: 1.3
B6: 2A8-g200 Fab VL-Y49H (Fab, V domains shown)
VH: B1 VH
VL: B1 VL with Y49H
notes: as for B2

- TFPI ELISA signal, pH 7.0 [1]: 2200
- TFPI ELISA signal, pH 6.0 [2]: 1770
- Ratio pH 7.0/pH 6.0 [3]: 1.24
B7: 2A8-g200 Fab VL-V45H (Fab, V domains shown)
VH: B1 VH
VL: B1 VL with V45H
notes: as for B2

- fold (x) printed after the variant's name; the sheet does not name it, paragraph 57 speaks of the ratio of kd at pH 6.0 to kd at pH 7.4 [4]: 3.2 x
- TFPI ELISA signal, pH 7.0 [1]: 913
- TFPI ELISA signal, pH 6.0 [2]: 133
- Ratio pH 7.0/pH 6.0 [3]: 6.84
B10: 2A8-g200 Fab VL-Y31H (Fab, V domains shown)
VH: B1 VH
VL: B1 VL with Y31H
notes: as for B2
